# Values quoted from earlier work, collected in publication PMC3509699.
# pKd: −log10 of the molar value. Where two headings read alike, the source gives them in different places.
# Columns and labels:
# KV1.3 (Homo sapiens) [1] = target: KV1.3 (Homo sapiens) (UniProt P22001)
# KCa3.1 (Homo sapiens) [2] = target: KCa3.1 (Homo sapiens) (UniProt O15554)
# KCa3.1 (Homo sapiens) [3] = target: KCa3.1 (Homo sapiens) (UniProt O15554); remark: listed apart in the source
# KV1.3 (Homo sapiens) [4] = target: KV1.3 (Homo sapiens) (UniProt P22001); remark: listed apart in the source
# Chain of UniProt P22001 (P22001 whole entry): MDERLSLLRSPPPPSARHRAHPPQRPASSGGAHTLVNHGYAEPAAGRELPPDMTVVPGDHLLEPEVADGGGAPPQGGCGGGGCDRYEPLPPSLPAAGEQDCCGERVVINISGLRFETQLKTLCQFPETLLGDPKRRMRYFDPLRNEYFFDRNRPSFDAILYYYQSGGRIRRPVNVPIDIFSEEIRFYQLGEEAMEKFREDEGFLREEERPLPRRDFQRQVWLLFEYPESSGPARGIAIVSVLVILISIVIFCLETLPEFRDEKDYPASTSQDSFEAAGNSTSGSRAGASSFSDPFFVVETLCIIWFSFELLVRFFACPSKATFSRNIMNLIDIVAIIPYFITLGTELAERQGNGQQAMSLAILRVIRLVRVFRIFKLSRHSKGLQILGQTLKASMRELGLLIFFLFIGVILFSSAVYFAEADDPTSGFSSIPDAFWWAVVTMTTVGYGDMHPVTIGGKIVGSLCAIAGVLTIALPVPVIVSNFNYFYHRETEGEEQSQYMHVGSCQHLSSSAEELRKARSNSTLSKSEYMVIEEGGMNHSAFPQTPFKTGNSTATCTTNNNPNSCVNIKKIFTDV
# Chain of UniProt O15554 (O15554 whole entry): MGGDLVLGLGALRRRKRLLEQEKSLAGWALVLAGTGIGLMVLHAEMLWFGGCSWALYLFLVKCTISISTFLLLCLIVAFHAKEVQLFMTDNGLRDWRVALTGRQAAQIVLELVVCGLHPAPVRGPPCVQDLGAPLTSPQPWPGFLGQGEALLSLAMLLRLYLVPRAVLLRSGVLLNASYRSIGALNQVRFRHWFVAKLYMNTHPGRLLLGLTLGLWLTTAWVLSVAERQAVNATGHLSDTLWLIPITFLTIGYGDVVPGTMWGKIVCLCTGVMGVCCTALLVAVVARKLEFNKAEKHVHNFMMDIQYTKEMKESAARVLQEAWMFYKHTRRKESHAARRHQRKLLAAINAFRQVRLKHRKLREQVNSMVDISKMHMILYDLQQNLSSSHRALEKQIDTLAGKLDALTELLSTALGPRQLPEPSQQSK
substance,measurement,setting,value
Margatoxin (from UniProt P40755),pKd,KV1.3 (Homo sapiens) [1],9.96
Charybdotoxin (ChTx) (from UniProt P13487),pKd,KCa3.1 (Homo sapiens) [2],8.30
Maurotoxin (MTX) (from UniProt P80719),pKd,KCa3.1 (Homo sapiens) [3],9.00
BmKTX (from UniProt Q9NII7),pKd,KV1.3 (Homo sapiens) [4],9.70
